Where a chain is given by its changes, count along the chain named.
Legend:
[1] = molecular target: T1, MabSelect SuRe (engineered Protein A); experiment: 500 ml Expi293 expression, MabSelect SuRe capture and cation exchange; purified homodimer yield; parental reference
T1 construct: also called MabSelect SuRe column
Experimental: 500 ml of Expi293 cells were transfected with 0.5 mg DNA encoding selected huSP34 scFv-Fc Protein A knockout variants according to manufacturer's protocol. Four days post transfection, the cell-free clarified supernatant was collected and loaded to a MabSelect™ SuRe™ (Cytiva Life Sciences) column. Afterwards the column was washed with a low salt buffer of 25 mM Tris HCl pH 7.5, 25 mM NaCl for 10 column volumes (CV), then high salt wash of 25 mM Tris HCl pH 7.5, 500 mM NaCl for 5CV to remove non-specific binding, and finally washed with a low salt wash of 25 mM Tris HCl pH 7.5, 25 mM NaCl for 10CV. To elute the antibody, an isocratic elution step of 100 mM sodium acetate pH 3.7 was performed. The eluted pool was neutralized to pH 6.0 with 1 M Tris HCl pH 9.0, and subjected to a cation ion purification, HiTrap SP HP (Cytiva Life Sciences) to further remove impurities. The cation captured protein was washed with 10 mM sodium phosphate pH 7.0 for 10CV, then eluted in 0-30% gradient of 10 mM sodium phosphate pH 7.0, 1M NaCl for 50CV to separate the desired two targeting arm antibody (heterodimer) from the one targeted arm antibody (homodimer). […] Concentration of the formulated protein was measured by A280. Purity was assessed as percent monodispersed by analytical size-exclusion chromatography. Identity of the bispecific antibody was determined by Mass Spec (MS).

[2] = molecular target: T2, biotinylated CD3 epsilon: delta heterodimer protein (Amsbio AMS.CDD-H52WO) (Homo sapiens (Human), UniProt P07766 23-126; P04234 22-105); experiment: BLI (Octet), corresponding huSP34 Fab variant
Experimental: (§1) The CD3 binding kinetics of the purified huSP34 Fabs were determined using OctetRed384 (Pall ForteBio, CA) biolayer interferometry (BLI). […] Streptavidin (SA) coated biosensors tips (Pall ForteBio, CA) were used to capture biotinylated CD3 epsilon: delta heterodimer and typical immobilization levels captured on the SA sensors were 1 nm which approximately translates to 300 ng/ml of captured protein. For kinetic measurements biosensors were first pre-wetted with assay buffer for 10 minutes to remove protective sucrose coating followed by the recommended regeneration conditions for standardization of the biosensor surface for the experiment. In order to load the biosensors with antigen, 300 ng/ml of biotinylated CD3 epsilon: delta heterodimer protein (Amsbio AMS.CDD-H52WO) was immobilized on the SA sensor for 900 seconds. The CD3 loaded biosensors were then blocked with 20 ug/ml biocytin (sigma) for 200 seconds and then dipped into assay buffer containing wells for 200 seconds to remove any non-specific protein or unbound CD3 heterodimer.
(§2) CD3 loaded and biocytin blocked biosensors were then transferred into fresh assay buffer for 200 seconds to collect a baseline read. Kinetic measurements for anti-CD3 Fab and bispecific antibody binding were performed by dipping the CD3-coated biosensors into wells containing multiple concentrations of Fab or Ab (0-300 nM) for 100 seconds followed by a 300 second dissociation time by transferring the biosensors into assay buffer containing wells. The CD3 loaded sensors were then regenerated for the next kinetic measurement. Biosensors were generated by removing bound Fabs or Ab from immobilized CD3 on SA biosensors. Regeneration conditions used consisted of 3 cycles of 5 seconds of dipping the biosensors in Regeneration Buffer (10 mM Glycine HCl pH 1.5) followed by Assay Buffer (10 mM sodium phosphate pH 7.4, 140 mM Sodium Chloride, 0.005% Tween20 with 0.2% BSA).

[3] = molecular target: T2, biotinylated CD3 epsilon: delta …; experiment: BLI (Octet), huSP34 variant in Fab format
Experimental: as §1, §2

[4] = molecular target: T3, CD3 expressed on cell-surface of primary human T cells (human, UniProt P07766 23-207; P04234 22-171); experiment: flow cytometry competition vs murine SP34-AF488 on human T cells, n = 1
T3 construct: also called cell-surface CD3; human CD3
Experimental: (§3) Binding of humanized SP34 Fab variants to CD3 expressed on cell-surface of primary human T cells was evaluated in a flow cytometry-based competition assay.

[5] = molecular target: T3, CD3 expressed on cell-surface of …; experiment: flow cytometry competition vs murine SP34-AF488 on human T cells, n = 2
Experimental: as §3

[6] = molecular target: T3, CD3 expressed on cell-surface of …; experiment: flow cytometry competition vs murine SP34-AF488 on human T cells, average
Experimental: as §3

[7] = molecular target: T2, biotinylated CD3 epsilon: delta …; experiment: BLI (Octet), corresponding huSP34 Fab variant; remark: listed apart in the source
Experimental: as §1
CD3 loaded and biocytin blocked biosensors were then transferred into fresh assay buffer for 200 seconds to collect a baseline read. […]

[8] = molecular target: T3, CD3 expressed on cell-surface of …; experiment: flow cytometry competition vs murine SP34-AF488 on human T cells, n = 1; remark: listed apart in the source
Experimental: as §3
(§4) A second round of huSP34 Fab variants were characterized using the same flow cytometry-based competition assay as described above.

[9] = molecular target: T3, CD3 expressed on cell-surface of …; experiment: flow cytometry competition vs murine SP34-AF488 on human T cells, average; remark: listed apart in the source
Experimental: as §3, §4

[10] = molecular target: T3, CD3 expressed on cell-surface of …; experiment: flow cytometry competition vs murine SP34-AF488 on human T cells, n = 2; remark: listed apart in the source
Experimental: as §3, §4

[11] = molecular target: T3, CD3 expressed on cell-surface of …; experiment: flow cytometry on PBMCs, % anti-huIgG+ CD8+ cells, donor hu 921
Experimental: (§5) Briefly, PBMCs from healthy human donors and healthy rhesus or cynomolgus monkey donors were incubated with different concentrations of HIV×CD3 bispecific molecules for 1 hour at RT. […] Cells were then washed, fixed/permeabilized, and analyzed on BD LSRFortessa. The percentage of α-huIgG-APC-positive CD4+ and CD8+ T cells and the mFI of the α-huIgG-APC of CD4+ and CD8+ cells were collected, and data analyzed using GraphPad Prism.

[12] = molecular target: T3, CD3 expressed on cell-surface of …; experiment: flow cytometry on PBMCs, % anti-huIgG+ CD8+ cells, donor hu 711
Experimental: as §5

[13] = molecular target: T4, CD3 on cynomolgus monkey T cells in PBMCs (cynomolgus monkey, UniProt Q95LI5 22-198); experiment: flow cytometry on PBMCs, % anti-huIgG+ CD8+ cells, donor cy 2177
T4 construct: whole, on cells; also called cynomolgus CD4+ and CD8+ T cells
T4 sequence (Q95LI5 22-198): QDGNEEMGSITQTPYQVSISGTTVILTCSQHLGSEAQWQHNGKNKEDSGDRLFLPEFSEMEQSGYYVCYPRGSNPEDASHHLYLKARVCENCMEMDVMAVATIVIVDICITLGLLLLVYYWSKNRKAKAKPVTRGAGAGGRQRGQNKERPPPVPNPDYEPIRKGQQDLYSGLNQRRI
Experimental: as §5

[14] = molecular target: T4, CD3 on cynomolgus monkey T cells in …; experiment: flow cytometry on PBMCs, % anti-huIgG+ CD4+ cells, donor cy 2177
Experimental: as §5

[15] = molecular target: T3, CD3 expressed on cell-surface of …; experiment: flow cytometry on PBMCs, % anti-huIgG+ CD4+ cells, donor hu 921
Experimental: as §5

[16] = molecular target: T3, CD3 expressed on cell-surface of …; experiment: flow cytometry on PBMCs, % anti-huIgG+ CD4+ cells, donor hu 711
Experimental: as §5

B1: huSP34.13.8 scFv AAS + SAV + R (Fc fusion)
chain: EVQLVESGGGLVQPGGSLRLSCAASGFTFSTYAMNWVRQAPGKGLEWVGRIRSKYNNYATYYAASVKGRFTISRDDSKNTLYLQMNSLRTEDTAVYYCVRHGNFGHSYVSWFAYWGQGTLVTVSSGGGGSGGGGSGGGGSGGGGSQAVVTQEPSLTVSPGGTVTLTCGSSTGAVTTGHYANWVQQKPGQAPRGLIGGTNKRAPGVPARFSGSLLGGKAALTISGAQPEDEAEYYCALWYSNRWVFGGGTKLTVLEPKSSDKTHTCPPCPAPEAAGGPSVFLFPPKPKDTLMISRTPEVTCVVVDVSHEDPEVKFNWYVDGVEVHNAKTKPREEQYNSTYRVVSVLTVLHQDWLNGKEYKCKVSNKALPASIEKTISKAKGQPREPQVYTLPPSREEMTKNQVSLSCAVKGFYPSDIAVEWESNGQPENNYKTTPPVLDSDGSFFLVSKLTVDKSRWQQGNVFSCSVMHEALHNRYTQKSLSLSPGK
notes: also called huSP34.13.8scFv-Fc; parent
scFv-Fc Homodimer Yield Relative to WT (e.g. Protein A binding) [1]: 100%

B2: huSP34.3.4 Fab-HF (Fab, V domains shown)
VH: EVQLVESGGGLVQPGGSLRLSCAASGFTFNTYAMNWVRQAPGKGLEWVGRIRSKYNNYATYYADSVKGRFTISRDDSKNSLYLQMNSLRTEDTAVYYCVRHGNFGHSYVSWFAYWGQGTLVTVSS
VL: QAVVTQEPSLTVSPGGTVTLTCGSSTGAVTTSHYANWVQQKPGQAPRGLIGGTSKRAPWTPARFSGSLLGGKAALTLSGAQPEDEAEYYCALWYSALWVFGGGTKLTVL
Kd [2]: 86 nM
Kd [3]: 86 nM
IC50 [4]: > 20 µg/mL
IC50 [5]: 17.3 µg/mL
IC50 [6]: 17.3 µg/mL

B3: huSP34.13.8 Fab-HF (Fab, V domains shown)
VH: B2 VH with N30S, D64A, S80T
VL: B2 VL with S32G, S54N, W59G, T60V, L77I, A96N, L97R
Kd [7]: 2.49 nM
IC50 [8]: 0.36 µg/mL
IC50 [9]: 0.25 µg/mL
IC50 [10]: 0.14 µg/mL

B4: huSP34.3.6 Fab-HF (Fab, V domains shown)
VH: B2 VH
VL: B2 VL with E7P, S32G, K55N, W59G, T60V, L69S, L77I, L97R
Kd [2]: 19 nM
Kd [3]: 19 nM
IC50 [4]: 8.48 µg/mL
IC50 [5]: 1.03 µg/mL
IC50 [6]: 4.75 µg/mL

B5: huSP34.4.2 Fab-HF (Fab, V domains shown)
VH: B2 VH with N30S, D64A, Y114V
VL: B2 VL with H33N, K55N, A96N
Kd [7]: 45.3 nM
IC50 [4]: > 20 µg/mL
IC50 [5]: > 20 µg/mL

B6: huSP34.13.10 Fab-HF (Fab, V domains shown)
VH: B2 VH with N30S, D64A, S80T
VL: B2 VL with E7P, S32G, S54N, W59G, T60V, L69S, L77I, A96N, L97R
IC50 [8]: 0.35 µg/mL
Kd [2]: 1.8 nM
IC50 [9]: 0.25 µg/mL
Kd [3]: 1.8 nM
IC50 [10]: 0.16 µg/mL

B7: hCD4 D1.22 Fc AAS + W + YTE/huSP34.39.13 AAS + SAV + R (bispecific antibody, human IgG1, lambda, L234A L235A)
chain: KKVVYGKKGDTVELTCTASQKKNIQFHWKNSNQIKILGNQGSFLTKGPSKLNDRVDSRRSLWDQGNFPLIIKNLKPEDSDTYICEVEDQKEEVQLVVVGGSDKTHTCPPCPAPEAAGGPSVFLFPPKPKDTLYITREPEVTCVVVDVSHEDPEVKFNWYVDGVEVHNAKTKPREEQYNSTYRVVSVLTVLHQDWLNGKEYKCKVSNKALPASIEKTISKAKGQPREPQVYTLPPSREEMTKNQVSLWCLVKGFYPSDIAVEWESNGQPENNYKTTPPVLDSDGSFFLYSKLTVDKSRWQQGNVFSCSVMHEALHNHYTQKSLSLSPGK
heavy: EVQLVESGGGLVQPGGSLRLSCAASGFTFNTYAMNWVRQAPGKGLEWVGRIRSKYNNYATYYADSVKSRFTISRDDSKNSLYLEMNSLRTEDTAVYYCVRHGNFGHSYVSWFAYWGQGTLVTVSSASTKGPSVFPLAPSSKSTSGGTAALGCLVKDYFPEPVTVSWNSGALTSGVHTFPAVLQSSGLYSLSSVVTVPSSSLGTQTYICNVNHKPSNTKVDKKVEPKSCDKTHTCPPCPAPEAAGGPSVFLFPPKPKDTLMISRTPEVTCVVVDVSHEDPEVKFNWYVDGVEVHNAKTKPREEQYNSTYRVVSVLTVLHQDWLNGKEYKCKVSNKALPASIEKTISKAKGQPREPQVYTLPPSREEMTKNQVSLSCAVKGFYPSDIAVEWESNGQPENNYKTTPPVLDSDGSFFLVSKLTVDKSRWQQGNVFSCSVMHEALHNRYTQKSLSLSPGK
light: QAVVTQEPSLTVSPGGTVTLTCGSSTGAVTTGHYANWVQQKPGQAPRGLIGGTSNRAPGVPARFSGSLLGGKAALTISGAQPEDEAEYYCALWYSNRWVFGGGTKLTVLGQPKAAPSVTLFPPSSEELQANKATLVCLISDFYPGAVTVAWKADSSPVKAGVETTTPSKQSNNKYAASSYLSLTPEQWKSHRSYSCQVTHEGSTVEKTVAPTECS
notes: also called 180; CD4 x huSP34 bispecific 180
EC50 [11]: 0.08 µg/mL
EC50 [12]: 1.1 µg/mL
EC50 [13]: 1.09 µg/mL
EC50 [14]: 0.5 µg/mL
EC50 [15]: 0.09 µg/mL
EC50 [16]: 0.54 µg/mL
